Patent US9817004B2, “Development and use of cysteine-labeled fluorescent probes of unbound analytes” (priority 2008, dated 2017)

What was measured:
[1] = Fluorescence emission spectra with increasing oleic acid; assay type: binding; conditions: acrylodan labeled; 22° C., Ex=386 nm
Method: FIGS. 1A-1C show Fluorescence spectra with increasing oleic acid at 22° C. Ex=386 nm.
This is an example of the type of fluorescence response that is a necessary characteristic of a probe. […] This example illustrates that altering specific sites can yield effective probes.

[2] = Bilirubin binding isotherm of dual fluorophore ratio probes (I608/I525)
Source text: FIGS. 7A-7B show Bilirubin binding isotherms for two dual fluorophore bilirubin ratio probes synthesized by labeling with acrylodan and Texas red.
Because such fluorescent proteins may have other valuable characteristics it would be important to be able to convert such fluorescent proteins into probes, i.e. so that they respond to analyte binding by a change in ratio. This can be accomplished by introducing a second but different fluorophore at a different site so that either the fluorescence of the second fluorophore is insensitive or responds differently to analyte binding. In addition, the fluorescence index of second fluorophore should be measured at a distinct wavelength from the first fluorophore. […] To convert this to a fluorescence ratio probe, site specific mutagenesis was used to generate a new mutein (L2P14F7-MGCFD) in which the N-terminal alanine residue of the mature L2P14F7 mutein was replaced with glycine-cysteine. Thus, the N-terminus of the mature L2P14F7-MGCFD mutein has the sequence glycine-cysteine-phenylalanine-aspartate instead of alanine-phenylalanine-aspartate, as in the L2P14F7 template. This substitution is designated in the clone name as “MGCFD” and is sometimes described as an “N-terminal MGCFD linker”. Then L2P14F7-MGCFD was reacted with Texas Red (TR) maleimide at pH 6 under which conditions only the cysteine was labeled. […]

[3] = FFAu response-profile screening of probes (FFA specificity); assay type: binding; conditions: cysteine labeled with acrylodan at pH 7.0; FFA to which probe has improved specificity
Method: In some embodiments, aliquots of the probes prepared as described above are placed in multi-well plates, suitable for fluorescence measurements. Defined amounts of unbound analytes are added to each well and a fluorescence signal from the wells containing probe and analytes are compared to wells containing only the probe. The values obtained are compared with those of a ‘reference’ probe. The analytes may be fatty acids or other unbound metabolites. Preferably, the number of wells in the multiwell plate is between 1 and 1536. […] For many analytes it is important that they be added to each well in complex with a carrier molecule, for example albumin, to buffer the unbound analyte and thereby clamp its concentration to well defined values. Clamping ensures that the concentration of analyte in the aqueous phase in the well is unaffected by binding to the surfaces of the well or the probes themselves. Clamping is essential for discovery of probes because analytes have different solubilities and therefore different affinities for surfaces. Highly insoluble analytes added without proper clamping may bind to the surfaces and be unavailable for binding to the probe. In this example the probe might incorrectly give the appearance of no response to the insoluble analyte. Thus to determine the correct response profile (specificities) for each probe each analyte's concentration must be clamped.
The fluorescence intensity ratio (“R” value) for a given probe is determined. The ratio is calculated using the following formula: R=Fλ1/Fλ2 wherein, Fλ1 is the measured fluorescence intensities (intensity of the probe with the analyte present minus intensity of the analyte without probe present) at wavelength 1 and Fλ2 is the measured fluorescence intensities (intensity of the probe with the analyte present minus intensity of the analyte without probe present) at wavelength 2. Then, for a given probe, ΔR, the difference in R value between the measurement in the presence of each analyte and in the absence of each analyte, is calculated as follows: ΔR=R+analyte−R0 The ΔR value for a given probe is then compared to a reference probe, for example, ADIFAB or ADIFAB2, by ΔR/ΔRreferenee. This value is an indication of how dissimilar the new probe (derived by mutation of the template) is to the reference. By this method, probes with new and useful characteristics may be identified. Measurements of fluorescence intensities are obtained using standard techniques.
More than 40 libraries of cysteine-labeled mutant probes, using templates derived from SEQ ID NO: 5, with the number of different mutant probes in the various libraries ranging from 2000 to 2,000,000 have been generated using the methods described in U.S. Pat. No. 7,601,510, incorporated herein by reference. […]

Molecule	fluorescence response upon FFA binding (spectral shift / ratio response) [1]	Specificity [3]	further results
ADIFAB: rat intestinal FABP (SEQ ID NO:2) labeled with acrylodan at lysine 27 (protein, listed as Rattus norvegicus, acrylodan label at K27; PEPTIDE (1)...(131) wild-type rat intestinal fatty acid binding protein; …ON (1)...(1)) AFDGTWKVDRNENYEKFMEKMGINVVKRKLGAHDNLKLTITQEGNKFTVKESSNFRNIDVVFELGVDFAYSLADGTELTGTWTMEGNKLVGKFKRVDNGKELIAVREISGNELIQTYTYEGVEAKRIFKKE	red shift in its fluorescence emission spectrum upon binding FFA	–	–
K27C: lysine 27 of SEQ ID NO:2 mutated to cysteine and the cysteine labeled with acrylodan (protein, listed as Rattus norvegicus, acrylodan label at C27; PEPTIDE (1)...(131) wild-type rat intestinal fatty acid binding protein; …ON (1)...(1)) AFDGTWKVDRNENYEKFMEKMGINVVCRKLGAHDNLKLTITQEGNKFTVKESSNFRNIDVVFELGVDFAYSLADGTELTGTWTMEGNKLVGKFKRVDNGKELIAVREISGNELIQTYTYEGVEAKRIFKKE	without the necessary spectral shift to yield a ratio probe	–	–
V26C K27A: SEQ ID NO:2 with lysine 27 mutated to alanine, valine 26 to cysteine, cysteine labeled with acrylodan (protein, listed as Rattus norvegicus, acrylodan label on cysteine 26; PEPTIDE (1)...(131) wild-type rat intestinal fatty acid binding protein; …ON (1)...(1)) AFDGTWKVDRNENYEKFMEKMGINVCARKLGAHDNLKLTITQEGNKFTVKESSNFRNIDVVFELGVDFAYSLADGTELTGTWTMEGNKLVGKFKRVDNGKELIAVREISGNELIQTYTYEGVEAKRIFKKE	yields a ratio response upon FFA binding	–	–
L2P14F7: bilirubin specific fluorescent protein, the M18G,G31M mutation of SEQ ID NO 4, labeled with acrylodan at lysine 27 (protein, listed as Rattus norvegicus, acrylodan label at lysine 27; MUTAGEN (72)...(72) rat intestinal fatty acid binding protein with alanine substitution for leucine at position 72 and Glu 131 to Asp subsitition.; COOH-terminal affinity tag comprising Arg132, Gly133 and 6 histidines) AFDGTWKVDRNENYEKFGEKMGINVVKRKLMAHDNLKLTITQEGNKFTVKESSNFRNIDVVFELGVDFAYSAADGTELTGTWTMEGNKLVGKFKRVDNGKELIAVREISGNELIQTYTYEGVEAKRIFKKDRGHHHHHH	–	–	analyte specificity ([2]; labeled with acrylodan at lysine 27): bilirubin specific; Kd ([2]; single site equilibrium binding, ratio I608/I525, excited at 375 nm): ~80 nM
L50BP9D5: acrylodan cysteine-labeled rI-FABP mutein; 18L 21F 23L 27C 31N 72S 73T 74A 76I 117N 131D (protein, listed as Rattus norvegicus, acrylodan label on cysteine; MUTAGEN (131)...(131) rat intestinal fatty acid binding protein with Glu 131 to Asp subsitition.; COOH-terminal affinity tag comprising Arg132, Gly133 and 6 histidines, acrylodan cysteine-labeled rI-FABP mutein; 18L 21F 23L 27C 31N 72S 73T 74A 76I 117N 131D) AFDGTWKVDRNENYEKFLEKFGLNVVCRKLNAHDNLKLTITQEGNKFTVKESSNFRNIDVVFELGVDFAYSSTAGIELTGTWTMEGNKLVGKFKRVDNGKELIAVREISGNELIQTNTYEGVEAKRIFKKDRGHHHHHH	–	PA/POA	–
L10P7A4-L30C: acrylodan cysteine-labeled rI-FABP mutein; SEQ ID 5 mutations 14L 18L 27A 30C 31Y 72A 73L 117A 131D (protein, listed as Rattus norvegicus, acrylodan label at C30; MUTAGEN (131)...(131) rat intestinal fatty acid binding protein with Glu 131 to Asp subsitition.; COOH-terminal affinity tag comprising Arg132, Gly133 and 6 histidines) AFDGTWKVDRNENLEKFLEKMGINVVARKCYAHDNLKLTITQEGNKFTVKESSNFRNIDVVFELGVDFAYSALDGTELTGTWTMEGNKLVGKFKRVDNGKELIAVREISGNELIQTATYEGVEAKRIFKKDRGHHHHHH	–	DHA	–
L68P3H10: 18L 23A 27C 31N 33N 55Q 72W 73T 74L 76I 106A 115E 117V 131D (protein, listed as Rattus norvegicus, acrylodan label on cysteine; MUTAGEN (131)...(131) rat intestinal fatty acid binding protein with Glu 131 to Asp subsitition.; COOH-terminal affinity tag comprising Arg132, Gly133 and 6 histidines, 18L 23A 27C 31N 33N 55Q 72W 73T 74L 76I 106A 115E 117V 131D) AFDGTWKVDRNENYEKFLEKMGANVVCRKLNANDNLKLTITQEGNKFTVKESSNQRNIDVVFELGVDFAYSWTLGIELTGTWTMEGNKLVGKFKRVDNGKELIAVAEISGNELIETVTYEGVEAKRIFKKDRGHHHHHH	–	DHA	–
L61P8B12: 8I 14L 18L 23L 27Y 30C 31V 53I 55W 72G 74A 78V 82V 91Y 93M 102V 106W 115W 117L 131D (protein, listed as Rattus norvegicus, acrylodan label on cysteine; MUTAGEN (131)...(131) rat intestinal fatty acid binding protein with Glu 131 to Asp subsitition.; COOH-terminal affinity tag comprising Arg132, Gly133 and 6 histidines, 8I 14L 18L 23L 27Y 30C 31V 53I 55W 72G 74A 78V 82V 91Y 93M 102V 106W 115W 117L 131D) AFDGTWKIDRNENLEKFLEKMGLNVVYRKCVAHDNLKLTITQEGNKFTVKESINWRNIDVVFELGVDFAYSGAAGTEVTGTVTMEGNKLVYKMKRVDNGKEVIAVWEISGNELIWTLTYEGVEAKRIFKKDRGHHHHHH	–	POA	–
